Measurements published in US20200405852A1 (BIOVERATIV USA, published 2020).
Substitutions are numbered along the chain they refer to.

T1: activated human complement C1s (human, UniProt P09871 16-688)
T1 construct: also called aC1s; active C1s
T1 sequence: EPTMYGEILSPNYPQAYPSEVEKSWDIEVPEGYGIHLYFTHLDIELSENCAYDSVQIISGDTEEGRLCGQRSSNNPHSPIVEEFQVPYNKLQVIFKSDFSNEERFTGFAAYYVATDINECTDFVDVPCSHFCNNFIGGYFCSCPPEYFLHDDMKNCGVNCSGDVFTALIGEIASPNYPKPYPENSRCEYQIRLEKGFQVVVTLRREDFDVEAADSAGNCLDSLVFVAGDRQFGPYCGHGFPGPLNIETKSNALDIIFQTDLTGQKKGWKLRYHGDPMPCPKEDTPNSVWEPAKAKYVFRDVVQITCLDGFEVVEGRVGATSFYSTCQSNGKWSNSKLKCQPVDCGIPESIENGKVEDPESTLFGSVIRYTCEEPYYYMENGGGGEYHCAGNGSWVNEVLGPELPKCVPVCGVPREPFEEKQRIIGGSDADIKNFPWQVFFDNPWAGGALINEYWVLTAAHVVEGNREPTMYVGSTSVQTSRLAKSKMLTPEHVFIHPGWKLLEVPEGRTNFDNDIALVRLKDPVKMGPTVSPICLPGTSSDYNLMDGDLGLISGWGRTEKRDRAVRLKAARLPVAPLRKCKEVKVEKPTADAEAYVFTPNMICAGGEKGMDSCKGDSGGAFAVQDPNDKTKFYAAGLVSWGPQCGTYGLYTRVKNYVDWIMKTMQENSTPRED

B1: humanized TNT005 variant VH variant 2+Vk variant 2 (antibody, V domains shown)
VH: EVQLVQSGAEVKKPGASVKLSCTASGFNIKDDYIHWVKQAPGQGLEWIGRIDPADGHTKYAPKFQVKATITADTSTNTAYLELSSLRSEDTAVYYCARYGYGREVFDYWGQGTTVTVSS
VL: DIVLTQSPDSLAVSLGERATISCKASQSVDYDGDSYMNWYQQKPGQPPKILIYDASNLESGIPARFSGSGSGTDFTLTISSLEPEDFAIYYCQQSNEDPWTFGGGTKVEIK
notes: also called VH variant 2 + VL variant 2
B2: humanized TNT005 variant VH variant 2+Vk variant 5 (antibody, V domains shown)
VH: B1 VH
VL: B1 VL with I50L, I89V
notes: also called VH variant 2 + VL variant 5
B3: humanized TNT005 variant VH variant 5+Vk variant 1 (antibody, V domains shown)
VH: B1 VH with E1Q, L20V, T23A, K38R, A68V, N77S, L81M
VL: B1 VL with P44T, P84E
notes: also called VH variant 5 + VL variant 1

Molecular target: T1, activated human complement C1s
Test: kinetic characterization of binding to active human C1s; instrument not stated; column head kdis

koff [s⁻¹]	Binder
0.000172	B1
0.000166	B2
0.000471	B3

Molecular target: T1, activated human complement C1s
Test: cell-based or functional assay

IC50 of classical complement pathway inhibition (commercial CP activation assay) [nM]	Binder
1.26	B1
1.27	B2
1.06	B3

Molecular target: T1, activated human complement C1s
Test: direct binding of antibody to activated C1s (aC1s); assay format not stated

EC50 [nM]	Binder
0.134	B1
0.124	B2
0.113	B3

Molecular target: T1, activated human complement C1s
Test: kinetic characterization of binding to active human C1s; instrument not stated

Kd [nM]	kon [M⁻¹ s⁻¹]	Binder
0.206	835000	B1
0.208	798000	B2
0.457	1.03e+06	B3

Molecular target: T1, activated human complement C1s
Test: competition binding to active C1s; competitor 50 pM biotinylated TNT005 (Biot-005)
Protocol: All 15 combinations (VH variant 1+Vk variant 1; VH variant 1+Vk variant 2; VH variant 1+Vk variant 5; VH variant 2+Vk variant 1; VH variant 2+Vk variant 2; VH variant 2+Vk variant 5; VH variant 3+Vk variant 1; VH variant 3+Vk variant 2; VH variant 3+Vk variant 5; VH variant 4+Vk variant 1; VH variant 4+Vk variant 2; VH variant 4+Vk variant 5; VH variant 5+Vk variant 1; VH variant 5+Vk variant 2; VH variant 5+Vk variant 5) were produced. Each humanized variant was tested for the ability to compete with biotinylated TNT005 for binding to active C1s.

IC50 [nM]	Binder
0.158	B1
0.168	B2
0.0449	B3
